The target in experiment [1] is human neonatal Fc receptor (FcRn), recombinant GPI-linked, on NS0 cells (human) (UniProt P55899). The experiment is described as follows: competition flow cytometry, NS0 cells with human FcRn, vs biotinylated OST577-IgG1, FBB pH 6.0. In general terms: In flow cytometry, cells or beads pass a laser one at a time.
The target in experiment [2] is rhesus neonatal Fc receptor (FcRn), recombinant GPI-linked, on NS0 cells (rhesus) (UniProt H9Z6D2). The experiment is described as follows: competition flow cytometry, NS0 cells with rhesus FcRn, vs biotinylated OST577-IgG1, FBB pH 6.0.
Experiment [3] deals with human neonatal Fc receptor (FcRn), recombinant GPI-linked, on NS0 cells (human) (UniProt P55899). The experiment is described as follows: competition flow cytometry, NS0 cells with human FcRn, vs biotinylated HuEP5C7-IgG2M3, FSB pH 6.0.
Experiment [4] has the same target. The experiment is described as follows: competition flow cytometry, NS0 cells with human FcRn, vs biotinylated HuEP5C7-IgG2M3, FBB pH 6.0.
Experiment [5] addresses rhesus neonatal Fc receptor (FcRn), recombinant GPI-linked, on NS0 cells (rhesus) (UniProt H9Z6D2). Description: competition flow cytometry, NS0 cells with rhesus FcRn, vs biotinylated OST577-IgG2M3, FBB pH 6.0.
Experiment [6] deals with human neonatal Fc receptor (FcRn), recombinant GPI-linked, on NS0 cells (human) (UniProt P55899). The experiment is described as follows: competition flow cytometry, NS0 cells with human FcRn, vs biotinylated OST577-IgG2M3, FBB pH 6.0.

Among the data in patent EP1562972B1 are IC50 and Relative Binding (ratio (IC50 wild-type / IC50 mutant)) values, retold here.

By IC50 is commonly meant the concentration that gives 50% inhibition.

Chain of human neonatal Fc receptor (FcRn), recombinant GPI-linked, on NS0 cells (human) (P55899 24-297, chain 1 of 2): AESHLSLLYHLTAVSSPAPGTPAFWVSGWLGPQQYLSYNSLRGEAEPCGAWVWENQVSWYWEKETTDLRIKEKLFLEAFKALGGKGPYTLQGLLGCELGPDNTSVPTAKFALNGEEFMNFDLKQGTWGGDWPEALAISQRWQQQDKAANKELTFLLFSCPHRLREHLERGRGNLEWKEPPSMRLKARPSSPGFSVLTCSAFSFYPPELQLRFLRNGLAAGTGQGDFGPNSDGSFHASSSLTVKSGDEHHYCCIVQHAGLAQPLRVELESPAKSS
Chain of human neonatal Fc receptor (FcRn), recombinant GPI-linked, on NS0 cells (human) (P61769 21-119, chain 2 of 2, further chain): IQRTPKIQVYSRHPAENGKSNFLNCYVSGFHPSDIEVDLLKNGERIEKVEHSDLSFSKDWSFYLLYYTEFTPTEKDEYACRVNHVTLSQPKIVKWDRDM

For OST577-IgG1 M428F mutant (antibody), in experiment [1], the IC50 was 3.44 µg/mL and the Relative Binding (ratio (IC50 wild-type / IC50 mutant)) was 4.

For OST577-IgG1 M428L mutant (antibody), in experiment [1], the IC50 stood at 0.896 µg/mL. For the same substance, in experiment [2], the IC50 worked out at 0.629 µg/mL and the Relative Binding (ratio (IC50 wild-type / IC50 mutant)) worked out at 14.

In the case of “OST577-IgG1 T250Q/M428L double mutant (antibody)”, in experiment [1], the IC50 is 0.351 µg/mL and the Relative Binding (ratio (IC50 wild-type / IC50 mutant)) came to 29. In addition, in experiment [2], the IC50 worked out at 0.236 µg/mL and the Relative Binding (ratio (IC50 wild-type / IC50 mutant)) stood at 37.

With OST577-IgG2M3 L314A mutant (antibody), in experiment [3], the IC50 amounted to 68.7 µg/mL and the Relative Binding (ratio (IC50 wild-type / IC50 mutant)) came out at 0.16.

For OST577-IgG2M3 L314Q mutant (antibody), in experiment [3], the IC50 worked out at 32 µg/mL and the Relative Binding (ratio (IC50 wild-type / IC50 mutant)) is 0.33.

As to OST577-IgG2M3 L314R mutant (antibody), the IC50 in experiment [3] turned out to be 102 µg/mL.

With OST577-IgG2M3 L314W mutant (antibody), in experiment [3], the 50% inhibitory concentration (IC50) was found to be 20.2 µg/mL and the Relative Binding (ratio (IC50 wild-type / IC50 mutant)) was 0.53.

As for OST577-IgG2M3 M428F mutant (antibody), the figures for the IC50 in experiment [3] and in experiment [4] were 3.4 µg/mL and 2.97 µg/mL, respectively.

Take OST577-IgG2M3 M428L mutant (antibody): in experiment [5], the IC50 came to 1.92 µg/mL and the Relative Binding (ratio (IC50 wild-type / IC50 mutant)) is 7.7. In experiment [6], the IC50 was 1.79 µg/mL and the Relative Binding (ratio (IC50 wild-type / IC50 mutant)) was 6.7.

As for “OST577-IgG2M3 T250Q/M428L double mutant (antibody)”, in experiment [5], the IC50 was determined as 0.554 µg/mL and the Relative Binding (ratio (IC50 wild-type / IC50 mutant)) was 27. The IC50 in experiment [6] amounted to 0.43 µg/mL.
